Source: patent publication US20210324351, “STRUCTURE OF THE HUMAN CGAS-DNA COMPLEX AND USES THEREOF” (Presodent and Fellows of Harvard College, published 2021)

Tests used:
[1] = molecular target: hcGAS catalytic domain WT (Homo sapiens, UniProt Q8N884 SEQ:1-366); assay: EMSA; gradient dialysis to 50 mM KCl, 4 C; preferentially higher-order oligomers; settings: tags: untagged (6xHis-SUMO2 removed with SENP2)
Description: (§1) cGAS-DNA complexes were stably assembled using a method adapted from a nucleosome assembly gradient dialysis protocol (Lee and Narlikar (2001) Current protocols in molecular biology Chapter 21, Unit 21.26), and complex formation was measured by electrophoretic mobility shift analysis. Briefly, a concentration gradient of recombinant protein (0.2, 0.4, 2, 10 μM) was incubated with 45 bp dsDNA (2 μM) in a high-salt buffer containing 20 mM HEPES-NaOH pH 7.8, […], 1 mM DTT at 4° C. for 20 min. The reconstitution mixture was then transferred into 8-10 kDa molecular weight cut-off dialysis tubing (Spectrum Labs), and placed into a beaker of the high-salt buffer. The KCl concentration was reduced gradually by slowly replacing high-salt buffer with low-salt buffer (20 mM HEPES-KOH pH 7.5, 50 mM KCl, 1 mM DTT) with a peristaltic pump (Bio-Rad) at a rate of […] for 48 hr at 4° C. After gradient dialysis, reactions were supplemented to 5% glycerol, and subsequently separated on a 2% agarose gel in 0.5×TBE buffer at 4° C. […] Alternatively, where indicated in FIGS. 8A and 8C, cGAS-DNA complexes were assembled by incubating directly in reaction buffer containing 20 mM HEPES-NaOH pH 7.8, […], 1 mM DTT at 4° C. for 20 min and analyzed by electrophoretic mobility shift analysis as indicated above. […]

[2] = molecular target: mcGAS humanized K187/L195 (UniProt Q8C6L5 SEQ:1-361, N172K,R180L); assay: EMSA; gradient dialysis to 50 mM KCl, 4 C; low-MW complex ablated, higher-order oligomers retained; settings: tags: untagged (6xHis-SUMO2 removed with SENP2)
Description: as §1

[3] = molecular target: T1, hcGAS K187N/L195R (hcGAS*) (Homo sapiens, UniProt Q8N884 SEQ:1-366); assay: EMSA; gradient dialysis to 50 mM KCl, 4 C; stable low-MW complex restored, oligomers unaffected; settings: tags: untagged (6xHis-SUMO2 removed with SENP2); chain copies: 2 (2:2 complex with DNA, stated)
T1 chain: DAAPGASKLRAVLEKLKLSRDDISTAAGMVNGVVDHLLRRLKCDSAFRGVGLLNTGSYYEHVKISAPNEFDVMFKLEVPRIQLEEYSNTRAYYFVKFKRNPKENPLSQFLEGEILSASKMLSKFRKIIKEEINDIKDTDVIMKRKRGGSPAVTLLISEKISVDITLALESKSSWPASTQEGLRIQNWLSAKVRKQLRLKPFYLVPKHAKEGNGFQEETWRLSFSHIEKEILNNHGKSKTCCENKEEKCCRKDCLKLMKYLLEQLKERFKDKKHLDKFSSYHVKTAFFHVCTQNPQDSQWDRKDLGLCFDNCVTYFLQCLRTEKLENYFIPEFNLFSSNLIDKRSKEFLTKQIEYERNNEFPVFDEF
Description: as §1

[4] = molecular target: mcGAS catalytic domain WT (UniProt Q8C6L5 SEQ:1-361); assay: EMSA; gradient dialysis to 50 mM KCl, 4 C; minimal complex plus higher-order oligomers; settings: tags: untagged (6xHis-SUMO2 removed with SENP2)
Description: as §1

Measured: binding result

mcGAS catalytic domain WT, sequence (Q8C6L5 147-507): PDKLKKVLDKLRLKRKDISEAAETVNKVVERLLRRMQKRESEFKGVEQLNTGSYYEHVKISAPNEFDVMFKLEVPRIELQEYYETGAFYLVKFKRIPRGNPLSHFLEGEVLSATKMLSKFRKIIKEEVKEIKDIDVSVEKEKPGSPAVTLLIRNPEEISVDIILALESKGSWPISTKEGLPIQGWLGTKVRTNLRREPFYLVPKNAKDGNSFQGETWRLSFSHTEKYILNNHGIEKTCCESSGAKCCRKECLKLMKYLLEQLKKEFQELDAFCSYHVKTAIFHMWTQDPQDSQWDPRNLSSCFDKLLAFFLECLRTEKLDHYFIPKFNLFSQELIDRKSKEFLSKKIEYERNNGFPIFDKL
mcGAS humanized K187/L195, sequence (Q8C6L5 147-507 N172K/R180L): as the sequence (Q8C6L5 147-507) above, with N26K, R34L counted along it

B1: 45 bp interferon stimulatory DNA (dsDNA)
DNA 1: TACAGATCTACTAGTGATCTATGACTGATCTGTACATGATCTACA
DNA 2: TGTAGATCATGTACAGATCAGTCATAGATCACTAGTAGATCTGTA
binds: all assays above
